Measurements taken from patent publication US20150064217A1, “PLURIPOTENT GERM LAYER ORIGIN ANTIGEN PRESENTING CANCER VACCINE” (CALIFORNIA STEM CELL, INC., priority 2012, published 2015).

Experiments:
SK-5-Mel cells = assay: MHC class II (HLA-DR) expression by flow cytometry with autophagy inhibitor; format: cell-based; conditions: autophagy inhibitor together with interferon-gamma
Description: The cells were then harvested and assayed for apoptosis and MHC class II (HLA-DR) expression by flow cytometry.
(§1) The methodology of the study was as follows. Autologous and model melanoma tumor cell lines were incubated with 1000 IU/mL of IFN-gamma for 72 hours prior to assaying for autophagy, apoptosis and MHC class II expression. Autophagy was detected by immunobloting with antibodies against LC3 II and by flow cytometry with Enzo's CytoID® Autophagy Detection Kit. Apoptosis and MHC class II induction were assayed by flow cytometry using 7-AAD and annexin-V staining and antibodies against MHC class II, respectively. 7-AAD intercalates in dsDNA. 7-AAD is excluded by viable cells, and thus it can be used to detect dead cells.
Analysis of tumor cell death and changes in major histocompatibility class II expression in response to IFN-gamma were conducted by use of antibodies directed against MHC class II, annexin-V and 7-amino-actinomycin D (7-AAD) and acquired on a Beckton-Dickenson FACS Calibur® flow cytometer.
(§2) What was investigated was the induction of autophagy, apoptosis and MHC class II molecules after IFN-gamma treatment of melanoma tumor cells in vitro. […] Autophagy was detected by immunobloting with antibodies against LC3 II and by flow cytometry with Enzo's CytoID Autophagy Detection Kit. […]

melanoma cell lines [1] = assay: Apoptosis and autophagy induction in melanoma cell lines (7-AAD, annexin-V, LC3 II); format: cell-based
Description: as §1
Analysis of tumor cell death and changes in major histocompatibility class II expression in response to IFN-gamma were conducted by use of antibodies directed against MHC class II, annexin-V and 7-amino-actinomycin D (7-AAD) and acquired on a Beckton-Dickenson FACS Calibur® flow cytometer. […]
as §2

melanoma cell lines [2] = assay: Immunohistochemistry of tumor associated antigens in melanoma cell lines with or without IFN-gamma; format: cell-based, human; conditions: share of melanoma cell lines; 1000 IU/mL IFN-gamma, 72 hours; N = 27 samples
Description: Expression of a panel antigens by melanoma lines were determined using immunocytochemical procedure. Cells were cultured in 8-chamber culture slides (Thermo Fisher, Rochester, N.Y.) in the presence or absence of 1000 IU/mL IFN-gamma. After 72 hours, the cells were washed 3 times with 1× Phosphate Buffered Saline (PBS) and fixed in cold acetone. After blocking endogenous peroxidase, cells were incubated with appropriate primary antibodies against the antigens listed. Immunohistochemistry was performed using biotinylated anitmouse or rabbit immunoglobulins, Super Sensitive enzyme-conjugated streptavidin labeling and horse radish peroxidase chromogen, and substrate kits (Biogenex, San Ramon, Calif.). The reactivity of the following anti-human polyclonal or monoclonal antibodies was investigated with isotype matched control antibody: S-100 and HMB-45 (Biogenex, San Ramon, Calif.), Mel-2, Mel-5, Mart-1 (Signet, Dedham, Mass.), Tyrosinase and Mage-1 (Thermo Scientific, Fremont, Calif.), Melan-A, HLA-class I and HLA-class II (Dako, Denmark).

[3] = tested on: autologous melanoma cells; assay: Flow cytometry for MHC class I and class II on autologous melanoma cells; format: cell-based, human; conditions: in response to IFN-gamma treatment
Description: FIGS. 2A-D show characterization of IFN-gamma treated autologous tumor cells used for loading dendritic cells. Autologous melanoma tumor cells were treated with or without 1000 IU/mL IFN-gamma for 72 hours in 15% FBS/ECS in RPMI, harvested and irradiated with 100 Gy and cryopreserved. Cells were then thawed in AIMV and a sample taken for flow cytometry and for preparation of cell lysates for immunoblotting prior to antigen loading of DCs. An example of four separate autologous melanoma cell lines is shown (FIG. 2A, FIG. 2B and FIG. 2C). Induction major histocompatibility complexes by IFN-gamma treatment of autologous tumor cells (FIG. 2D). Tumor cells were harvested after being treated with or without 1000 IU/mL IFN-gamma for 72 hours and then assayed for MHC class I and class II. Control isotype antibodies were used to identify positive populations. Dark data points indicate median mean fluorescent plus/minus 95% confidence interval. N=65. After irradiation, melanoma cells are checked by assays to ensure that there is not any mitosis. […]

[4] = tested on: autologous melanoma tumor cells; assay: Immunoblotting of melanoma cell lysates; format: cell-based, human; conditions: cells incubated with IFN-gamma
Description: Cytoplasmic cell lysates were prepared with Mammalian Protein Extraction Reagent (Thermo Scientific, Rockford, Ill.) plus protease inhibitor cocktail (Roche, Indianapolis, Ind.) at 10,000 cells/uL on ice. Approximately 25 uLs/lane of cell lysates were separated on 12.5% tris-glycine gels, transferred to PVDF membrane and probed with antibodies against the following: calreticulin (MBL, Woburn, Mass.), Hsp-60, Hsp-70, Hsp-90 (R&D Systems, Minneapolis, Minn.), HMBG-1 (Cell Signaling, Danvers, Mass.), ICAM-1 (Santa Cruz Biotech, Santa Cruz, Calif.), Mel-4, Mart-1 (Signet, Emeryville, Calif.), tyrosinase (Upstate, Lake Placid, N.Y.) and GADPH (Calbiochem, Darmstadt, Germany).

Colon tumor cell line = assay: Response to interferon-gamma by flow cytometry, colon tumor cell line; format: cell-based; conditions: Sample A, interferon-gamma 72 hours
From the text: (§3) Pure tumor cells were generated from colon, ovarian, glioblastoma, and renal cell carcinoma according to Dillman and Comforth, et al. (Cornforth, et al. (2011) Cancer Immunol. Immunother. 60:123-131; Dillman, et al. (1993) J. Immunother. Emphasis Tumor Immunol. 14:65-69; Dillman, et al. (2000) Cancer Biother. Radiopharm. 15:161-168; Dillman, et al. (1999) 14:443-449; Dillman et al. (2000) 15:161-168).
(§4) Briefly, tumor biopsies from surgical samples were enzymatically processed into single cell suspensions and purified cell lines generated by differential attachment and serum starvation. The cell lines generated were cryopreserved in liquid nitrogen, thawed and treated with or without interferon-gamma in 5% fetal bovine serum/RPMI media for 72 hours. After exposure to interferon-gamma, the non-adherent cells were analyzed separately from the adherent cells by flow-cytometry. The markers investigated were MHC class I, MHC class II, Annexin V (apoptosis), and 7-ADD (viability).

Ovarian tumor cell line = assay: Response to interferon-gamma by flow cytometry, ovarian tumor cell line; format: cell-based; conditions: Sample B, interferon-gamma 72 hours
From the text: as §3, §4

[5] = tested on: Glioblastoma tumor cell line; assay: Response to interferon-gamma by flow cytometry, glioblastoma cell line; format: cell-based; conditions: Sample C, interferon-gamma 72 hours
From the text: as §3, §4

[6] = tested on: Renal Cell Carcinoma tumor cell line; assay: Response to interferon-gamma by flow cytometry, renal cell carcinoma cell line; format: cell-based; conditions: Sample D, interferon-gamma 72 hours
From the text: as §3, §4

Question: How did the “MHC class II expression despite treatment with interferon-gamma” value (SK-5-Mel cells) turn out when `Cn1cnc(N)c2ncnc1-2` [3-MA, 3-methyladenine] was run?
Answer: loss of MHC class II expression

Question: How did the “apoptosis in IFN-gamma treated cells” value (melanoma cell lines [1]; pan caspase inhibitor with IFN-gamma) turn out when “carbobenzoxy-valyl-alanyl-aspartyl-[O-methyl]-fluoromethylketone [Z-VAD, reference compound]” was run?
Answer: prevents apoptosis

B1: interferon-gamma (protein, UniProt P01579 24-161, looked up)
Interferon gamma: QDPYVKEAENLKKYFNAGHSDVADNGTLFLGILKNWKEESDRKIMQSQIVSFYFKLFKNFKDDQSIQKSVETIKEDMNVKFFNSNKKKRDDFEKLTNYSVTDLNVQRKAIHELIQVMAELSPAAKTGKRKRSQMLFRG
notes: type II interferon (InterMune, Brisbane, Calif.) used to treat tumor cells in vitro
Question: Which “HMB-45 expression: Change after IFN-gamma treatment, Down” value (melanoma cell lines [2]) does the source give for B1 here?
Answer: 45/5

Question: And the “HMB-45 expression: Change after IFN-gamma treatment, None” value (melanoma cell lines [2])?
Answer: 54.5%

Question: And the “MAGE-1 expression: Change after IFN-gamma treatment, Down” value (melanoma cell lines [2])?
Answer: 61.5%

Question: And the “MAGE-1 expression: Change after IFN-gamma treatment, None” value (melanoma cell lines [2])?
Answer: 38.5%

Question: What about the “MART-1 expression: Change after IFN-gamma treatment, Down” value (melanoma cell lines [2]) of the same molecule?
Answer: 85.2%

Question: What about the “MART-1 expression: Change after IFN-gamma treatment, None” value (melanoma cell lines [2]) of the same molecule?
Answer: 14.8%

Question: What about the “Mel-2 expression: Change after IFN-gamma treatment, Down” value (melanoma cell lines [2]) of the same molecule?
Answer: 53.8%

Question: What about the “Mel-2 expression: Change after IFN-gamma treatment, None” value (melanoma cell lines [2]) of the same molecule?
Answer: 46.2%

Question: And the “Mel-5 expression: Change after IFN-gamma treatment, Down” value (melanoma cell lines [2])?
Answer: 27.3%

Question: What about the “Mel-5 expression: Change after IFN-gamma treatment, None” value (melanoma cell lines [2]) of the same molecule?
Answer: 72.7%

Question: What about the “Melan-A expression: Change after IFN-gamma treatment, Down” value (melanoma cell lines [2]) of the same molecule?
Answer: 70.8%

Question: And the “Melan-A expression: Change after IFN-gamma treatment, None” value (melanoma cell lines [2])?
Answer: 29.2%

Question: What about the “S-100 expression: Change after IFN-gamma treatment, Down” value (melanoma cell lines [2]) of the same molecule?
Answer: 57.1%

Question: And the “S-100 expression: Change after IFN-gamma treatment, None” value (melanoma cell lines [2])?
Answer: 42.9%

Question: What about the “Tyrosinase expression: Change after IFN-gamma treatment, Down” value (melanoma cell lines [2]) of the same molecule?
Answer: 60.0%

Question: And the “Tyrosinase expression: Change after IFN-gamma treatment, None” value (melanoma cell lines [2])?
Answer: 40.0%

Question: And the “cases with MHC class II induction greater than two fold” value [3]?
Answer: 70%

Question: What about the “ICAM-1, immunoblot” value [4] of the same molecule?
Answer: significantly up-regulated

Question: What about the “calreticulin and high-mobility group box-1 protein (HMGB-1), immunoblot” value [4] of the same molecule?
Answer: up-regulated in some cases

Question: What about the “common melanoma antigens (mel-4, Mart-1 and tyrosinase), immunoblot” value [4] of the same molecule?
Answer: down regulated

Question: What about the “induction of autophagic and apoptotic cell populations” value (melanoma cell lines [1]; 1000 IU/mL IFN-gamma, 72 hours) of the same molecule?
Answer: induces both autophagic and apoptotic cell populations

Question: And the “Induction of MHC class I” value (Colon tumor cell line)?
Answer: Yes

Question: What about the “Induction of MHC class II” value (Colon tumor cell line) of the same molecule?
Answer: Yes

Question: And the Induction of apoptosis (Colon tumor cell line)?
Answer: No

Question: And the Induction of autophagy (Colon tumor cell line)?
Answer: Yes

Question: And the “Induction of MHC class I” value (Ovarian tumor cell line)?
Answer: Yes

Question: What about the “Induction of MHC class II” value (Ovarian tumor cell line) of the same molecule?
Answer: Yes

Question: What about the Induction of apoptosis (Ovarian tumor cell line) of the same molecule?
Answer: No

Question: What about the Induction of autophagy (Ovarian tumor cell line) of the same molecule?
Answer: Yes

Question: What about the “Induction of MHC class I” value [5] of the same molecule?
Answer: No

Question: What about the “Induction of MHC class II” value [5] of the same molecule?
Answer: Yes

Question: And the Induction of apoptosis [5]?
Answer: Yes

Question: And the Induction of autophagy [5]?
Answer: Yes

Question: And the “Induction of MHC class I” value [6]?
Answer: No

Question: What about the “Induction of MHC class II” value [6] of the same molecule?
Answer: Yes

Question: What about the Induction of apoptosis [6] of the same molecule?
Answer: Yes

Question: What about the Induction of autophagy [6] of the same molecule?
Answer: Yes
